Source: PMC4519979 (Biochemistry, 2015)

Key:
[1] = molecular target: the molecule itself; assay: native gel or EMSA; BN-PAGE with Western blot for the His tag; membranes (30 ug protein) solubilised in PBS pH 7.4 with 1% DDM, 2.8 M urea, 1 mM EDTA, 30 min, room temperature; heptamer to monomers
[2] = molecular target: the molecule itself; assay: native gel or EMSA; BN-PAGE after the fluorescence measurements of purified MscS reconstituted into DOPC bilayers (molar ratio 1:100; 40 mM HEPES pH 7.2, 100 mM KCl, 1 mM EGTA)
[3] = molecular target: the molecule itself; assay: FRET or BRET; homo-FRET between Trp residues of different subunits read by steady-state fluorescence anisotropy; heptameric and dissociated fractions from SEC, DDM-solubilised; excitation 295 nm, emission 340-360 nm
[4] = molecular target: the molecule itself; assay: SEC; HiPrep Superdex 200 16/600 after Ni-NTA; 0.03% DDM, 50 mM sodium phosphate pH 7.5, 150 mM NaCl; ratio of heptamers to monomers

Protein | stoichiometry N [2] | binding result [4] | also measured
wild-type (WT) MscS (complex, E. coli) MEDLNVVDSINGAGSWLVANQALLLSYAVNIVAALAIIIVGLIIARMISNAVNRLMISRKIDATVADFLSALVRYGIIAFTLIAALGRVGVQTASVIAVLGAAGLAVGLALQGSLSNLAAGVLLVMFRPFRAGEYVDLGGVAGTVLSVQIFSTTMRTADGKIIVIPNGKIIAGNIINFSREPVRRNEFIIGVAYDSDIDQVKQILTNIIQSEDRILKDREMTVRLNELGASSINFVVRVWSNSGDLQNVYWDVLERIKREFDAAGISFPYPQMDVNFKRVKEDKAA | – | – | stoichiometry N [1]: 7
MscS YFF (complex, E. coli) MEDLNVVDSINGAGSYLVANQALLLSYAVNIVAALAIIIVGLIIARMISNAVNRLMISRKIDATVADFLSALVRYGIIAFTLIAALGRVGVQTASVIAVLGAAGLAVGLALQGSLSNLAAGVLLVMFRPFRAGEYVDLGGVAGTVLSVQIFSTTMRTADGKIIVIPNGKIIAGNIINFSREPVRRNEFIIGVAYDSDIDQVKQILTNIIQSEDRILKDREMTVRLNELGASSINFVVRVFSNSGDLQNVYFDVLERIKREFDAAGISFPYPQMDVNFKRVKEDKAA | – | – | stoichiometry N [1]: 7
MscS YFF G113W (complex, E. coli, UniProt P0C0S1 1-286, looked up) MEDLNVVDSINGAGSYLVANQALLLSYAVNIVAALAIIIVGLIIARMISNAVNRLMISRKIDATVADFLSALVRYGIIAFTLIAALGRVGVQTASVIAVLGAAGLAVGLALQWSLSNLAAGVLLVMFRPFRAGEYVDLGGVAGTVLSVQIFSTTMRTADGKIIVIPNGKIIAGNIINFSREPVRRNEFIIGVAYDSDIDQVKQILTNIIQSEDRILKDREMTVRLNELGASSINFVVRVFSNSGDLQNVYFDVLERIKREFDAAGISFPYPQMDVNFKRVKEDKAA | 7 | – | –
MscS YFF A94W (complex, E. coli) MEDLNVVDSINGAGSYLVANQALLLSYAVNIVAALAIIIVGLIIARMISNAVNRLMISRKIDATVADFLSALVRYGIIAFTLIAALGRVGVQTWSVIAVLGAAGLAVGLALQGSLSNLAAGVLLVMFRPFRAGEYVDLGGVAGTVLSVQIFSTTMRTADGKIIVIPNGKIIAGNIINFSREPVRRNEFIIGVAYDSDIDQVKQILTNIIQSEDRILKDREMTVRLNELGASSINFVVRVFSNSGDLQNVYFDVLERIKREFDAAGISFPYPQMDVNFKRVKEDKAA | 7 | – | –
MscS YFF A103W (complex, E. coli, UniProt P0C0S1 1-286, looked up) MEDLNVVDSINGAGSYLVANQALLLSYAVNIVAALAIIIVGLIIARMISNAVNRLMISRKIDATVADFLSALVRYGIIAFTLIAALGRVGVQTASVIAVLGAWGLAVGLALQGSLSNLAAGVLLVMFRPFRAGEYVDLGGVAGTVLSVQIFSTTMRTADGKIIVIPNGKIIAGNIINFSREPVRRNEFIIGVAYDSDIDQVKQILTNIIQSEDRILKDREMTVRLNELGASSINFVVRVFSNSGDLQNVYFDVLERIKREFDAAGISFPYPQMDVNFKRVKEDKAA | 7 | – | –
MscS YFF T93W (complex, E. coli) MEDLNVVDSINGAGSYLVANQALLLSYAVNIVAALAIIIVGLIIARMISNAVNRLMISRKIDATVADFLSALVRYGIIAFTLIAALGRVGVQWASVIAVLGAAGLAVGLALQGSLSNLAAGVLLVMFRPFRAGEYVDLGGVAGTVLSVQIFSTTMRTADGKIIVIPNGKIIAGNIINFSREPVRRNEFIIGVAYDSDIDQVKQILTNIIQSEDRILKDREMTVRLNELGASSINFVVRVFSNSGDLQNVYFDVLERIKREFDAAGISFPYPQMDVNFKRVKEDKAA | 7 | – | –
MscS YFF L109W (complex, E. coli, UniProt P0C0S1 1-286, looked up) MEDLNVVDSINGAGSYLVANQALLLSYAVNIVAALAIIIVGLIIARMISNAVNRLMISRKIDATVADFLSALVRYGIIAFTLIAALGRVGVQTASVIAVLGAAGLAVGWALQGSLSNLAAGVLLVMFRPFRAGEYVDLGGVAGTVLSVQIFSTTMRTADGKIIVIPNGKIIAGNIINFSREPVRRNEFIIGVAYDSDIDQVKQILTNIIQSEDRILKDREMTVRLNELGASSINFVVRVFSNSGDLQNVYFDVLERIKREFDAAGISFPYPQMDVNFKRVKEDKAA | – | – | binding result [3]: binds
MscS YFF G90W (complex, E. coli) MEDLNVVDSINGAGSYLVANQALLLSYAVNIVAALAIIIVGLIIARMISNAVNRLMISRKIDATVADFLSALVRYGIIAFTLIAALGRVWVQTASVIAVLGAAGLAVGLALQGSLSNLAAGVLLVMFRPFRAGEYVDLGGVAGTVLSVQIFSTTMRTADGKIIVIPNGKIIAGNIINFSREPVRRNEFIIGVAYDSDIDQVKQILTNIIQSEDRILKDREMTVRLNELGASSINFVVRVFSNSGDLQNVYFDVLERIKREFDAAGISFPYPQMDVNFKRVKEDKAA | – | binds | –
MscS YFF I97W (complex, E. coli, UniProt P0C0S1 1-286, looked up) MEDLNVVDSINGAGSYLVANQALLLSYAVNIVAALAIIIVGLIIARMISNAVNRLMISRKIDATVADFLSALVRYGIIAFTLIAALGRVGVQTASVWAVLGAAGLAVGLALQGSLSNLAAGVLLVMFRPFRAGEYVDLGGVAGTVLSVQIFSTTMRTADGKIIVIPNGKIIAGNIINFSREPVRRNEFIIGVAYDSDIDQVKQILTNIIQSEDRILKDREMTVRLNELGASSINFVVRVFSNSGDLQNVYFDVLERIKREFDAAGISFPYPQMDVNFKRVKEDKAA | – | binds | –
MscS YFF L105W (complex, E. coli, UniProt P0C0S1 1-286, looked up) MEDLNVVDSINGAGSYLVANQALLLSYAVNIVAALAIIIVGLIIARMISNAVNRLMISRKIDATVADFLSALVRYGIIAFTLIAALGRVGVQTASVIAVLGAAGWAVGLALQGSLSNLAAGVLLVMFRPFRAGEYVDLGGVAGTVLSVQIFSTTMRTADGKIIVIPNGKIIAGNIINFSREPVRRNEFIIGVAYDSDIDQVKQILTNIIQSEDRILKDREMTVRLNELGASSINFVVRVFSNSGDLQNVYFDVLERIKREFDAAGISFPYPQMDVNFKRVKEDKAA | 7 | – | –
MscS YFF G101W (complex, E. coli, UniProt P0C0S1 1-286, looked up) MEDLNVVDSINGAGSYLVANQALLLSYAVNIVAALAIIIVGLIIARMISNAVNRLMISRKIDATVADFLSALVRYGIIAFTLIAALGRVGVQTASVIAVLWAAGLAVGLALQGSLSNLAAGVLLVMFRPFRAGEYVDLGGVAGTVLSVQIFSTTMRTADGKIIVIPNGKIIAGNIINFSREPVRRNEFIIGVAYDSDIDQVKQILTNIIQSEDRILKDREMTVRLNELGASSINFVVRVFSNSGDLQNVYFDVLERIKREFDAAGISFPYPQMDVNFKRVKEDKAA | 7 | – | –
MscS YFF R88W (complex, E. coli, UniProt P0C0S1 1-286, looked up) MEDLNVVDSINGAGSYLVANQALLLSYAVNIVAALAIIIVGLIIARMISNAVNRLMISRKIDATVADFLSALVRYGIIAFTLIAALGWVGVQTASVIAVLGAAGLAVGLALQGSLSNLAAGVLLVMFRPFRAGEYVDLGGVAGTVLSVQIFSTTMRTADGKIIVIPNGKIIAGNIINFSREPVRRNEFIIGVAYDSDIDQVKQILTNIIQSEDRILKDREMTVRLNELGASSINFVVRVFSNSGDLQNVYFDVLERIKREFDAAGISFPYPQMDVNFKRVKEDKAA | – | binds | –
MscS YFF A98W (complex, E. coli, UniProt P0C0S1 1-286, looked up) MEDLNVVDSINGAGSYLVANQALLLSYAVNIVAALAIIIVGLIIARMISNAVNRLMISRKIDATVADFLSALVRYGIIAFTLIAALGRVGVQTASVIWVLGAAGLAVGLALQGSLSNLAAGVLLVMFRPFRAGEYVDLGGVAGTVLSVQIFSTTMRTADGKIIVIPNGKIIAGNIINFSREPVRRNEFIIGVAYDSDIDQVKQILTNIIQSEDRILKDREMTVRLNELGASSINFVVRVFSNSGDLQNVYFDVLERIKREFDAAGISFPYPQMDVNFKRVKEDKAA | – | binds | –
